Patent US20250382353A1 (published 2025)

Molecular target: SARS-CoV-2 D614G spike (SARS-CoV-2, UniProt P0DTC2 14-1208)
Test: SPR

B1: 1C3 antigen-binding fragment (Fab) (Fab, V domains shown)
VH: QVQLLESGGGLVQPGRSLRLSCAASGFTFDDYAMHWVRQPPGKGLEWVSGSSWNSGSVVYADSVKGRFTISRDSAKNSLHLQMNSLRVEDTALYYCAKAVDPTRGSYSPDYGFDIWGQGTMVTVS
VL: not shown
Binder B1 has a Kd of 0.043 nM.

B2: Fab 2A10 (antibody, V domains shown)
VH: QVQLVESGGGLIQPGGSLRLSCAASEFIVSSNYMSWVRQAPGKGLEWVSLLYSGGTTYYADSVKGRFTISRDNSKNTLFLQMNSLRAEDTAMYYCARDRGPWLHDYWGQGTLVTVS
VL: DIVMTQSPSSLSASVGDRVTITCQASQDINKYCNWYQQKPGKAPKLLIYDASNLETGVPSRFSGSGSGTDFTFTINSLQPEDIATYYCQQYDNLPPTFGGGTKVEIK
For B2, the Kd was 0.161 nM.
